Results from article PMC6601565.

Legend:
[1] = target: human CD16A-158V ECD fused to Avi-tagged and biotinylated monomeric Fc (silenced) (human); test: SPR
[2] = target: human CD16A-158F ECD fused to Avi-tagged and biotinylated monomeric Fc (silenced) (human) (UniProt P08637); test: SPR
Chain of UniProt P08637 (P08637 17-208): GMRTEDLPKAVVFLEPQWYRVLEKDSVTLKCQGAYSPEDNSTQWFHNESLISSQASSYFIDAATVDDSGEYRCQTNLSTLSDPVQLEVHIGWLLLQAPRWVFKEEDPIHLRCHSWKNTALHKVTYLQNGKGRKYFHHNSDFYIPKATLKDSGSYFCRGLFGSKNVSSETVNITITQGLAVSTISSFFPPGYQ

Substance	Kd [1] [nM]	koff [1] [s⁻¹]	kon [1] [M⁻¹ s⁻¹]	Kd [2] [µM]	koff [2] [s⁻¹]	kon [2] [M⁻¹ s⁻¹]
human IgG1 with enhanced Fc (S239D/I332E) (antibody)	13.5	0.00639	474000			
human IgG1 with silenced Fc (L234F/L235E/D265A) (antibody)				34.7	0.71	20400
human IgG1 with wildtype Fc (antibody)	424	0.00995	23500	2.72	0.0675	24800
